Substitutions are numbered along the chain they refer to. Names may count otherwise.
How the values were obtained:
A549 lung cancer cells [1] = assay: Wound healing assay of A549 cells expressing FoxM1 phosphorylated point mutants; format: cell-based; details: distance in the control group at 72 h set to 0%
Experimental: To observe the effects of phosphorylation point mutations on the motility of cancer cells, a wound healing assay was performed in lung cancer cells A549 expressing FoxM1 wild type (WT), phosphorylated point mutants S25E, S361E, and S715E, and a simultaneous triple-point mutation EEE protein.
Specifically, cells expressing the gene of FoxM1 point mutant by the lentivirus system were seeded into 6-well plates at 1×10^5 cells/well each. 24 hours after cell seeding, scratches were made at regular intervals using a 200 μl-pipette tip. In addition, A549 cells treated with mock as a negative control (Mock) and 5 ng/ml of TGF-β as a positive control were used. […] In addition, the distance in the control group at 72 h was set to 0%, and the relative distance was represented as a bar graph (FIG. 4G).

lung tissues = assay: EMT marker and PD-L1 protein levels in lysed lung tissue of injected mice; format: in vivo
Experimental: Next, when the lung tissues were lysed and the protein levels of epithelial-mesenchymal transition markers were measured, the protein levels of the mesenchymal marker N-cadherin increased in the FoxM1 phosphorylated point mutant experimental group, while the levels of E-cadherin decreased. In addition, the expression of PD-L1, which was known to be involved in immune evasion and to enhance the tumorigenic potential of cancer cells, was also examined in each experimental group. […] Moreover, the consistent results were confirmed not only at the protein levels but also at the mRNA levels (FIG. 5E).

A549 lung cancer cells [2] = assay: Cell proliferation assay of A549 cells expressing FoxM1 point mutants; format: cell-based; details: A549 cells expressing the mutant
THP-1 cells = assay: M1 and M2 marker mRNA in THP-1 cells co-cultured with FoxM1-expressing A549 cells; format: cell-based, human; details: co-culture 48 h
From the text: In the animal tissues, it was confirmed that both PD-L1 protein expression and CD274 mRNA expression were increased in cancer cells expressing FoxM1 (FIG. 5D, 5E). […] From the results described above, we investigated whether FoxM1 phosphorylated point mutant (S25E) affects the polarization of macrophages in the tumor microenvironment. After co-culturing human monocyte THP-1 cells and the cell groups over-expressing FoxM1 point mutants, M1 and M2 markers were examined in THP-1 cells.
Next, an expression suppression system for suppressing FoxM1 expression was established to observe whether the FoxM1 phosphorylated point mutant (S25E) directly affects polarization to M2 macrophages. First, to inhibit the expression of mRNA of FoxM1, a pLKO-puro.1-hFoxM1 plasmid was produced using a pLKO-puro.1 vector to construct shRNAs targeting nucleotide sequences at 709-729 positions in the human FoxM1 mRNA sequence. The following sequences can be used as target sequences for human FoxM1 shRNA production, and oligonucleotides with the following sequences can be used as primers for shRNA production. The gene accession number for human FoxM1 mRNA in PubMed is NM_001243088.2, and it contains 3507 bp. The following primers were used for shRNA production: 5′-ccgg-[…]-ctcgag-[…]-tttttg-3′ (forward primer) and 5′-aattcaaaaa-AGCAAG AGATGGAGGAAAAGG-ctcgag-[…]-3′ (reverse primer). Then, after purifying and concentrating each lentivirus for expression of the produced FoxM1 shRNA, it was constructed by infecting a lung cancer cell line, A549 cells expressing FoxM1, with the virus. The mRNA expression of M2 markers, CD163, CD206, and VEGFA, was examined after co-culturing lung cancer cells (4×10^4 cells/ml) with suppressed FoxM1 expression and THP-1 cells (1.2×10^5 cells/ml) for 48 h. […] When co-culturing with cancer cells expressing the FoxM1 variant S25E, it was confirmed that the M2 markers CD163, CD206, and VEGFA were all increased by 2 folds or more in THP1 cells compared to the control group (Mock_shCtrl) (FIG. 6D).
After co-culturing the FoxM1 WT protein over-expressed cancer cells (4×10^4 cells/ml) and THP-1 cells (1.2×10^5 cells/ml) for 48 h, the mRNA expression of M1 markers INOS and IL12B was not altered, while the mRNA expression of all the M2 markers IL10, CD163, CD206, TGFB1, and VEGFA was increased in the FoxM1 WT (FIG. 13A). Among them, CD206, TGFB1, and VEGFA had been known as markers for M2d-tumor-associated macrophages (M2d-TAM) (JAYASINGAM, Sharmilla Devi, et al., Frontiers in Oncology (2020) 9: 1512.).

A549 cells [3] = assay: M2d-inducing factor mRNA in A549 cells after co-culture with THP-1 cells; format: cell-based; details: co-culture with THP-1 48 hours
Experimental: (§1) In addition, after co-culturing of human monocyte THP-1 cells and cell groups over-expressing FoxM1 point mutations for 48 hours under the conditions where the previous experiments were performed, the mRNA expression levels of M2d-inducing factors IL4, IL6, IL10, and VEGFA in A549 cells expressing FoxM1 S25E were analyzed. […] The amounts of TGFB1 and VEGFA proteins in the medium cultured for 48 h with A549 cells (4×10^4 cells/ml) expressing FoxM1 variants were measured by ELISA.

A549 cells [4] = assay: ELISA of TGFB1 and VEGFA proteins in A549 culture medium; format: cell-based; details: medium cultured 48 h
Experimental: as §1

A549 cells [5] = assay: IL6, IL1A and CD274 mRNA in A549 cells co-cultured with Jurkat cells; format: cell-based; details: co-culture with Jurkat 48 h
THP-1 monocytes = assay: PD-1 (CD279) mRNA in THP-1 monocytes co-cultured with A549 cells; format: cell-based, human; details: co-culture
Experimental: To examine the mRNA expression levels of PD-1 and PD-L1, which are involved in solid tumor immune evasion, in THP-1 cells and the cells expressing the FoxM1 phosphorylated point mutant, the expression of PD-1 (CD279) mRNA, an immune evasion factor, was measured by qRT-PCR in THP-1 monocytes co-cultured with A549^S25E cells for 48 h (FIG. 7B). It was observed that the expression of mRNA of PD-L1 (CD274), an immune evasion factor, increased by 2 folds in the A549^S25E cells expressing the phosphorylated point mutant compared to the control group.

B1: S25E: FoxM1 phosphorylated point mutant of the S25 residue, expressed by lentivirus in A549 cells (protein, listed as Homo sapiens)
chain: MKTSPRRPLILKRRRLPLPVQNAPEETSEEEPKRSPAQQESNQAEASKEVAESNSCKFPAGIKIINHPTMPNTQVVAIPNNANIHSIITALTAKGKESGSSGPNKFILISCGGAPTQPPGLRPQTQTSYDAKRTEVTLETLGPKPAARDVNLPRPPGALCEQKRETCDGEAAGCTINNSLSNIQWLRKMSSDGLGSRSIKQEMEEKENCHLEQRQVKVEEPSRPSASWQNSVSERPPYSYMAMIQFAINSTERKRMTLKDIYTWIEDHFPYFKHIAKPGWKNSIRHNLSLHDMFVRETSANGKVSFWTIHPSANRYLTLDQVFKQQQKRPNPELRRNMTIKTELPLGARRKMKPLLPRVSSYLVPIQFPVNQSLVLQPSVKVPLPLAASLMSSELARHSKRVRIAPKVLLAEEGIAPLSSAGPGKEEKLLFGEGFSPLLPVQTIKEEEIQPGEEMPHLARPIKVESPPLEEWPSPAPSFKEESSHSWEDSSQSPTPRPKKSYSGLRSPTRCVSEMLVIQHRERRERSRSRRKQHLLPPCVDEPELLFSEGPSTSRWAAELPFPADSSDPASQLSYSQEVGGPFKTPIKETLPISSTPSKSVLPRTPESWRLTPPAKVGGLDFSPVQTSQGASDPLPDPLGLMDLSTTPLQSAPPLESPQRLLSSEPLDLISVPFGNSSPSDIDVPKPGSPEPQVSGLAANRSLTEGLVLDTMNDSLSKILLDISFPGLDEDPLGPDNINWSQFIPELQ
relative healing distance (motility) at 72 h (A549 lung cancer cells [1]): 43% | expression of PD-L1 in lung tissue (lung tissues): elevated | protein level of E-cadherin in lung tissue (lung tissues): decreased | protein level of N-cadherin in lung tissue (lung tissues): increased | cell proliferation (A549 lung cancer cells [2]): did not significantly increase | M2 markers CD163, CD206 and VEGFA in THP1 cells compared to Mock_shCtrl (THP-1 cells): ≥ 2 folds | mRNA expression of M1 markers INOS and IL12B in THP-1 cells (THP-1 cells): did not change | mRNA expression of M2 markers IL10, CD163, Cd206, TGFB1 and VEGFA in THP-1 cells (THP-1 cells): ≥ 2 folds | mRNA expression level of IL4 in A549 cells (A549 cells [3]): 1.8 folds | mRNA expression level of IL6 in A549 cells (A549 cells [3]): 1.8 folds | mRNA expression level of IL10 in A549 cells (A549 cells [3]): 2.2 folds | mRNA expression level of VEGFA in A549 cells (A549 cells [3]): 2.5 folds | mRNA expression level, fifth value printed (factor not named) (A549 cells [3]): 2.5 folds | amount of TGFB1 protein in medium, compared to Mock (A549 cells [4]): 5 folds | amount of VEGFA protein in medium, compared to Mock (A549 cells [4]): 4 folds | expression of IL6, ILIA and CD274 in A549 cells (in words) (A549 cells [5]): significantly low expression | mRNA expression of CD274 in A549 cells (A549 cells [5]): 5 folds | mRNA expression of IL6 in A549 cells (A549 cells [5]): 3.5 folds | mRNA expression of ILIA in A549 cells (A549 cells [5]): 4.5 folds

B2: S25A: FoxM1 protein with Ser25 substituted with alanine, non-phosphorylated point mutant, expressed by lentivirus in A549 cells (protein)
chain: B1 chain with E25A
modifications: left off: a dimerising Fc or GST
notes: FoxM1 protein with Ser25 substituted with alanine, non-phosphorylated point mutant, expressed by lentivirus in A549 cells
expression of PD-1 mRNA (CD279) in THP-1 monocytes (THP-1 monocytes): highest
